Article PMC6277001 (Molecular cancer research : MCR, 2018)

Target: T1, GST-β-catenin^4A (UniProt P35222 1-781, S33A | S37A | T41A | S45A)
T1 sequence: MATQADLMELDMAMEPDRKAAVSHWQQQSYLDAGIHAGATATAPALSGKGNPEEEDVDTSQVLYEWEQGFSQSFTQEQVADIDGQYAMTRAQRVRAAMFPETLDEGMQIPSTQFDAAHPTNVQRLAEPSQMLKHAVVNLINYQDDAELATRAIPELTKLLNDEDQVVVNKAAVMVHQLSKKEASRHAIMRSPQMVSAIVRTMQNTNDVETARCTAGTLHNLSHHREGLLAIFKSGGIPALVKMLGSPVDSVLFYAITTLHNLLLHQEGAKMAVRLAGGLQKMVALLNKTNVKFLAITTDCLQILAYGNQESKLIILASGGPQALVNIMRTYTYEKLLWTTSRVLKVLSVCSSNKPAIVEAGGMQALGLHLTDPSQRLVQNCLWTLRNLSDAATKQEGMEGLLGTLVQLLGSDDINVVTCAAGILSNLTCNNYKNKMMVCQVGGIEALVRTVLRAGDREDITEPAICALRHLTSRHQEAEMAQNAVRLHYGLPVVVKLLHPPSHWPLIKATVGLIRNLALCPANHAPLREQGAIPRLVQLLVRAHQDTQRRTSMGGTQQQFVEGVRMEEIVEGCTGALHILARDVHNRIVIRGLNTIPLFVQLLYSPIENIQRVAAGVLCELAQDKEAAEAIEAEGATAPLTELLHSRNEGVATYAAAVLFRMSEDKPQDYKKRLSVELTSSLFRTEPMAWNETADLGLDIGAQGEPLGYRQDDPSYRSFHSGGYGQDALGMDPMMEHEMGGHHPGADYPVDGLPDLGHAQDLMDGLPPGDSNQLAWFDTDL
Experiment: pull-down

B1: 6xHis-FLYWCH1 (natural protein)
chain: MPLPEPSEQEGESVKAGQEPSPKPGTDVIPAAPRKPREFSKLVLLTASDQDEDGVGSKPQEVHCVLSLEMAGPATLASTLQILPVEEQGGVVQPALEMPEQKCSKLDAAAPQSLEFLRTPFGGRLLVLESFLYKQEKAVGDKVYWKCRQHAELGCRGRAITRGLRATVMRGHCHAPDEQGLEARRQREKLPSLALPEGLGEPQGPEGPGGRVEEPLEGVGPWQCPEEPEPTPGLVLSKPALEEEEAPRALSLLSLPPKKRSILGLGQARPLEFLRTCYGGSFLVHESFLYKREKAVGDKVYWTCRDHALHGCRSRAITQGQRVTVMRGHCHQPDMEGLEARRQQEKAVETLQAGQDGPGSQVDTLLRGVDSLLYRRGPGPLTLTRPRPRKRAKVEDQELPTQPEAPDEHQDMDADPGGPEFLKTPLGGSFLVYESFLYRREKAAGEKVYWTCRDQARMGCRSRAITQGRRVTVMRGHCHPPDLGGLEALRQREKRPNTAQRGSPGGPEFLKTPLGGSFLVYESFLYRREKAAGEKVYWTCRDQARMGCRSRAITQGRRVMVMRRHCHPPDLGGLEALRQREHFPNLAQWDSPDPLRPLEFLRTSLGGRFLVHESFLYRKEKAAGEKVYWMCRDQARLGCRSRAITQGHRIMVMRSHCHQPDLAGLEALRQRERLPTTAQQEDPEKIQVQLCFKTCSPESQQIYGDIKDVRLDGESQ
Question: Does B1 bind?
Answer: binds
